B1: GST-hnRNP H1 (natural protein, human (cDNA from 293 cells), UniProt P31943 1-449, looked up)
chain: MMLGTEGGEGFVVKVRGLPWSCSADEVQRFFSDCKIQNGAQGIRFIYTREGRPSGEAFVELESEDEVKLALKKDRETMGHRYVEVFKSNNVEMDWVLKHTGPNSPDTANDGFVRLRGLPFGCSKEEIVQFFSGLEIVPNGITLPVDFQGRSTGEAFVQFASQEIAEKALKKHKERIGHRYIEIFKSSRAEVRTHYDPPRKLMAMQRPGPYDRPGAGRGYNSIGRGAGFERMRRGAYGGGYGGYDDYNGYNDGYGFGSDRFGRDLNYCFSGMSDHRYGDGGSTFQSTTGHCVHMRGLPYRATENDIYNFFSPLNPVRVHIEIGPDGRVTGEADVEFATHEDAVAAMSKDKANMQHRYVELFLNSTAGASGGAYEHRYVELFLNSTAGASGGAYGSQMMGGMGLSNQSSYGGPASQQLSGGYGGGYGGQSSMSGYDQVLQENSSDFQSNIA
notes: hnRNP H1, cDNA amplified from 293 cell cDNAs, cloned into pGEX-4T-1; source: E. coli BL21 (DE3), purified on glutathione sepharose 4B without elution
B2: purified Flag-tagged AKAP95 (natural protein)
chain: not shown
notes: AKAP95 (AKAP8) cDNA in pFastBac1; also called F-AKAP95; FLAG-AKAP95; source: sf9 cells (baculovirus), purified (anti-FLAG M2 agarose, FLAG peptide elution)

Assays:
[1] = molecular target: B2; assay: pull-down; GST fusions bound to glutathione resin, purified F-AKAP95 proteins in solution, BC200, 0.1% NP40, immunoblot; conditions: both partners purified
[2] = molecular target: T1, purified AKAP95-MBP fusion protein (human, UniProt O43823 1-692); assay: pull-down; purified MBP or AKAP95-MBP bound to amylose resin, purified F-AKAP95 in solution, BC200, 0.05% NP40, immunoblot; conditions: both partners purified
T1 construct: AKAP95 (AKAP8); source: sf9 cells (baculovirus), purified on amylose resin, kept on the resin
T1 sequence (O43823 whole entry, the tested form may be a part): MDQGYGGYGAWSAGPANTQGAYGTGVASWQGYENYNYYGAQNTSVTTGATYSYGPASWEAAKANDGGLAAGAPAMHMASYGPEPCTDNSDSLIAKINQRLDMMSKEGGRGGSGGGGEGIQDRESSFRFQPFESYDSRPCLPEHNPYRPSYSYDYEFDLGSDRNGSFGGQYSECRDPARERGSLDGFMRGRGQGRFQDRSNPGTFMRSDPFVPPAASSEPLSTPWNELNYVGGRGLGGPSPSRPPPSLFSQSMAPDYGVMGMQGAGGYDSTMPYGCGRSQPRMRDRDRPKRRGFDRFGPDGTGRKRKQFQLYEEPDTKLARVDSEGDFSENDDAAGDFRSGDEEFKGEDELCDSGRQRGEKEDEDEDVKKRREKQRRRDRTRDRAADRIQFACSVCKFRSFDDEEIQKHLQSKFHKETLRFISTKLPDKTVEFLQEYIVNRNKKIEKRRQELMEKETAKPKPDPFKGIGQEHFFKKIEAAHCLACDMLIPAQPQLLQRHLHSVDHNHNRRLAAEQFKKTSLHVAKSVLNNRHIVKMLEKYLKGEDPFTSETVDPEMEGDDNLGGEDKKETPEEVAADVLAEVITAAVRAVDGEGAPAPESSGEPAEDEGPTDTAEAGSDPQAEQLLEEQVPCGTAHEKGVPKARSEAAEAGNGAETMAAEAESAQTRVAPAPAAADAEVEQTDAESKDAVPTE

Row | Binder | binding result [1] | binding result [2]
1 | B1 | binds | 
2 | B2 |  | binds

Reference: publication PMC5105168, “AKAP95 regulates splicing through scaffolding RNAs and RNA processing factors” (Nature Communications, 2016)
